Experimental data reported in publication PMC5846801, “Disease Variants of FGFR3 Reveal Molecular Basis for the Recognition and Additional Roles for Cdc37 in Hsp90 Chaperone System” (Structure(London, England:1993), 2018).

B1: non-phosphorylated Cdc37 (natural protein)
chain: MVDYSVWDHIEVSDDEDETHPNIDTASLFRWRHQARVERMEQFQKEKEELDRGCRECKRKVAECQRKLKELEVAEGGKAELERLQAEAQQLRKEERSWEQKLEEMRKKEKSMPWNVDTLSKDGFSKSMVNTKPEKTEEDSEEVREQKHKTFVEKYEKQIKHFGMLRRWDDSQKYLSDNVHLVCEETANYLVIWCIDLEVEEKCALMEQVAHQTIVMQFILELAKSLKVDPRACFRQFFTKIKTADRQYMEGFNDELEAFKERVRGRAKLRIEKAMKEYEEEERKKRLGPGGLDPVEVYESLPEELQKCFDVKDVQMLQDAISKMDPTDAKYHMQRCIDSGLWVPNSKASEAKEGEEAGPGDPLLEAVPKTGDEKDVSV
notes: human Hsp90 co-chaperone Cdc37, expressed from pET28 (gift of C. Vaughan; Vaughan et al., 2006), not phosphorylated; Used in ITC and in the auto-phosphorylation assay and in the comparison with the phosphorylated form; No tag removal step is described; also called CDC37^Apo; Cdc37^Apo; source: E. coli C41 (DE3), purified (HisTrap, HiTrap Q, Superdex 200)
B2: FGFR3 kinase domain variant I538F (domain or fragment)
chain: SELELPADPKWELSRARLTLGKPLGEGCFGQVVMAEAIGIDKDRAAKPVTVAVKMLKDDATDKDLSDLVSEMEMMKMIGKHKNFINLLGACTQGGPLYVLVEYAAKGNLREFLRARRPPGLDYSFDTCKPPEEQLTFKDLVSCAYQVARGMEYLASQKCIHRDLAARNVLVTEDNVMKIADFGLARDVHNLDYYKKTTNGRLPVKWMAPEALFDRVYTHQSDVWSFGVLLWEIFTLGGSPYPGIPVEELFKLLKEGHRMDKPANCTHDLYMIMRECWHAAPSQRPTFKQLVEDLDRVLTVTSTDEYLDLSAPFE
notes: FGFR3 kinase domain, amino acids 455-768 of human FGFR3, disease-linked (cancer) mutation I538F; pJ821 construct; 15N labelled for NMR; also called FGFR3^I538F; GFR3^I538F; source: E. coli C41 (DE3), co-expressed with lambda phosphatase, purified (HisTrap, HiTrap Q, Superdex 200); not shown: His-SUMO, N-terminal, cleaved

Key:
Conditions in all cases: both partners purified
[1] = target: B2; assay: ITC; kinase domain in the cell (FGFR3 WT 19.4 μM, FGFR3 I538F 16.9 μM), Cdc37 Apo 211.7 μM in the syringe; 25 mM Tris.Cl, 50 mM NaCl, 5 mM MgCl2, 0.1 mM TCEP, pH 7.5, 20 °C; single site model
Hsp90α = target: T1, Hsp90α (human, UniProt P07900 1-732); assay: SEC; ternary mixture: 15 μM kinase, 15 μM Cdc37, 30 μM Hsp90α (1:1:2), 15 min at 4 °C; Superdex 200 Increase, 25 mM Tris.Cl, 150 mM NaCl, 1 mM TCEP, pH 8.0, 4 °C; fractions by SDS-PAGE and ELISA
T1 construct: human Hsp90α, expressed from pRSET (gift of C. Vaughan; Vaughan et al., 2006); Used at a 2:1:1 ratio to Cdc37 and kinase; source: E. coli C41 (DE3), purified (HisTrap, HiTrap Q, Superdex 200)

non-phosphorylated Cdc37 = target: B1; assay: ITC; kinase domain in the cell (FGFR3 WT 19.4 μM, FGFR3 I538F 16.9 μM), Cdc37 Apo 211.7 μM in the syringe; 25 mM Tris.Cl, 50 mM NaCl, 5 mM MgCl2, 0.1 mM TCEP, pH 7.5, 20 °C; single site model

| stoichiometry N [1] | binding result (Hsp90α) | Kd (non-phosphorylated Cdc37) | Binder |
| --- | --- | --- | --- |
| 1 | – | – | B1 |
| – | binds | – | FGFR3 kinase domain variant E466K (domain or fragment, FGFR3 kinase domain, amino acids 455-768 of human FGFR3, disease-linked (cancer) mutation E466K; also called FGFR3^E466K; source: E. coli C41 (DE3), co-expressed with lambda phosphatase, purified (HisTrap, HiTrap Q, Superdex 200)) SELELPADPKWKLSRARLTLGKPLGEGCFGQVVMAEAIGIDKDRAAKPVTVAVKMLKDDATDKDLSDLVSEMEMMKMIGKHKNIINLLGACTQGGPLYVLVEYAAKGNLREFLRARRPPGLDYSFDTCKPPEEQLTFKDLVSCAYQVARGMEYLASQKCIHRDLAARNVLVTEDNVMKIADFGLARDVHNLDYYKKTTNGRLPVKWMAPEALFDRVYTHQSDVWSFGVLLWEIFTLGGSPYPGIPVEELFKLLKEGHRMDKPANCTHDLYMIMRECWHAAPSQRPTFKQLVEDLDRVLTVTSTDEYLDLSAPFE |
| – | binds | 1800 nM | B2 |
| – | binds | – | FGFR3 kinase domain variant N540K (domain or fragment, FGFR3 kinase domain, amino acids 455-768 of human FGFR3, disease-linked mutation N540K; pJ821 construct; also called FGFR3^N540K; source: E. coli C41 (DE3), co-expressed with lambda phosphatase, purified (HisTrap, HiTrap Q, Superdex 200); not shown: His-SUMO, N-terminal, cleaved) SELELPADPKWELSRARLTLGKPLGEGCFGQVVMAEAIGIDKDRAAKPVTVAVKMLKDDATDKDLSDLVSEMEMMKMIGKHKNIIKLLGACTQGGPLYVLVEYAAKGNLREFLRARRPPGLDYSFDTCKPPEEQLTFKDLVSCAYQVARGMEYLASQKCIHRDLAARNVLVTEDNVMKIADFGLARDVHNLDYYKKTTNGRLPVKWMAPEALFDRVYTHQSDVWSFGVLLWEIFTLGGSPYPGIPVEELFKLLKEGHRMDKPANCTHDLYMIMRECWHAAPSQRPTFKQLVEDLDRVLTVTSTDEYLDLSAPFE |
